{"source": "patent US20210223235A1", "biological_target": "QTARK^MeSTGC (SEQ ID NO: 4), methylated H3K9 peptide ligand immobilized on the monolayer", "assay": "cell-based or functional assay", "data": [{"substance": "Cbx1 fusion protein (Cbx1 chromodomain fused to KDAC8 through a short linker) (from UniProt P83916 20-73; Q9BY41 1-377)", "values": [{"measurement": "rate acceleration for the deacetylation reaction (SAMDI mass spectrometry)", "result": 20, "unit": "fold"}]}]}
